Laboratory results from patent US20260116951A1 (DUCENTIS BIOTHERAPEUTICS, published 2026).

B1: DS-192 (human CD200-Fc, K130Y, IgG4 Fc) (Fc fusion)
chain: QVQVVTQDEREQLYTPASLKCSLQNAQEALIVTWQKKKAVSPENMVTFSENHGVVIQPAYKDKINITQLGLQNSTITFWNITLEDEGCYMCLFNTFGFGYISGTACLTVYVQPIVSLHYKFSEDHLNITCSATARPAPMVFWKVPRSGIENSTVTLSHPNGTTSVTSILHIKDPKNQVGKEVICQVLHLGTVTDFKQTVNKGPPCPPCPAPEFLGGPSVFLFPPKPKDTLMISRTPEVTCVVVDVSQEDPEVQFNWYVDGVEVHNAKTKPREEQFNSTYRVVSVLTVLHQDWLNGKEYKCKVSNKGLPSSIEKTISKAKGQPREPQVYTLPPSQEEMTKNQVSLTCLVKGFYPSDIAVEWESNGQPENNYKTTPPVLDSDGSFFLYSRLTVDKSRWQEGNVFSCSVMHEALHNHYTQKSLSLSLGK
notes: also called 13 nM CD200-Fc; ha CD200-IgG4 Fc
B2: Recombinant Human CD200R, His-tagged (Creative Biomart CD200R1-320H) (receptor, UniProt Q8TD46 27-266, looked up)
chain: AAQPNNSLMLQTSKENHALASSSLCMDEKQITQNYSKVLAEVNTSWPVKMATNAVLCCPPIALRNLIIITWEIILRGQPSCTKAYKKETNETKETNCTDERITWVSRPDQNSDLQIRTVAITHDGYYRCIMVTPDGNFHRGYHLQVLVTPEVTLFQNRNRTAVCKAVAGKPAAHISWIPEGDCATKQEYWSNGTVTVKSTCHWEVHNVSTVTCHVSHLTGNKSLYIELLPVPGAKKSAKL
notes: Bought; also called human CD200 receptor; not shown: His tag

What was measured:
[1] = target: B2; assay: SPR, CD200R flowed over immobilized CD200-Fc, 25 C, 1:1 fit
Method: (§1) For human CD200 constructs: anti-human Fc (GE Healthcare) was covalently immobilized on a BIAcore CM5 sensor chip (Cytiva, BR100530) by amine coupling using a Cytiva kit (BR100839) following the manufacturer's instructions, targeting immobilization of 8,000-11,000 RU. CD200-Fc proteins were diluted to 0.5 μg/mL to 4 μg/mL in running Buffer (1×HBS-EP+pH7.4 (Cytiva BR100669), HEPES Buffered Saline pH 7.4 containing 3 mM EDTA and 0.05% v/v Surfactant P20) and flowed for 25 to 100 seconds at 10 μL/min over the immobilized Anti-Human IgG Fc, with a stabilization time of 60 seconds. Between 35 and 250 RUs of CD200-Fc were captured, with higher RUs used for cynomolgus CD200R binding experiments. […] Analysis temperature was 25° C. This was followed by regeneration of the surface with 30-90 second pulse of 3M MgCl₂ flowed at […] flow rate followed by stabilization of the surface with 60 second flow of running buffer.
(§2) Curves obtained were fitted to 1:1 Langmuir binding model by setting Rmax and RI as local parameters. Rate equations using standard parameters (e.g. ligand concentration, time) were used for iterative curve fitting. […] Means of 2 experiments carried out on the same day are shown with standard deviation. Residue numbering for CD200 proteins refers to the pre-protein, containing a signal peptide which is cleaved during insertion into the endoplasmic reticulum.

[2] = target: T1, Recombinant Cyno CD200R, His-tagged (Creative Biomart CD200R1-3483C) (cynomolgus monkey); assay: SPR, cyno CD200R1 flowed over immobilized CD200-Fc, 25 C, 1:1 fit
T1 construct: Bought; also called cynomolgus CD200R1; cynomolgus CD200R
Method: as §1, §2

[3] = target: T1, Recombinant Cyno CD200R, His-tagged …; assay: SPR, cyno CD200R1 flowed over immobilized CD200-Fc, 25 C, 1:1 fit, mean of 2 experiments with standard deviation
Method: as §1, §2

[4] = target: B1; assay: SPR (BIAcore)
[5] = target: B1; assay: SPR, CD200R flowed over immobilized CD200-Fc, 25 C, 1:1 fit, mean of 2 experiments with standard deviation
Method: as §1, §2

[6] = target: T2, muCD200R-Fc (Creative Biomart CD200R1-458M) (mouse, UniProt Q9ES57 26-238); assay: SPR, his-tag mouse CD200 monomer flowed over muCD200R-Fc captured on anti-human Fc, 25 C, 1:1 fit, mean of 2 experiments with standard deviation
T2 construct: Captured on anti-human IgG Fc for the mouse CD200 measurements; also called Murine CD200R1; immobilized CD200R (muCD200); not shown: Fc of the bought fusion, not described (captured on anti-human IgG Fc)
T2 sequence (looked up): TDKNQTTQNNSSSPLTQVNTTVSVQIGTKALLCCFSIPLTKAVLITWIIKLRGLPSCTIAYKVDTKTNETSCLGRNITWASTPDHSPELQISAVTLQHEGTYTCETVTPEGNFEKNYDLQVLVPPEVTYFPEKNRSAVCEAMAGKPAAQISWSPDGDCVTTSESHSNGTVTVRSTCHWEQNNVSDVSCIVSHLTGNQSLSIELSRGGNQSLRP
Method: (§3) For mouse CD200 constructs, muCD200R-Fc (Creative Biomart CD200R1-458M) diluted to 1 μg/mL in running buffer was flowed over the immobilized Anti-Human IgG Fc, with CD200 monomers serially diluted and flowed over captured CD200R. Other details were as above. Data analysis: experimental sensorgrams were analyzed in BIAevaluation software (GE Healthcare). The curves obtained were fitted to 1:1 Langmuir binding model by setting Rmax and RI as local parameters. Rate equations using standard parameters (e.g. ligand concentration, time) were used for iterative curve fitting. Closeness of fit was determined by algorithms provided by the manufacturer in the BIAevaluation software, and data accepted if the Chi² value was less than 10% of Rₘₐₓ, and the U value was less than or equal to 15.
as §2

[7] = target: T2, muCD200R-Fc (Creative Biomart …); assay: SPR, his-tag mouse CD200 monomer flowed over muCD200R-Fc captured on anti-human Fc, 25 C, 1:1 fit
Method: as §3, §2

[8] = target: T2, muCD200R-Fc (Creative Biomart …); assay: SPR, monomeric binding
Method: as §3, §2

| binding result [4] | Kd [6] [nM] | T1/2 [7] [min] | Binder | other results |
| --- | --- | --- | --- | --- |
|  |  |  | B1 | T1/2 [1]: 3.1 min; T1/2 [2]: 0.32 min; Kd [3]: 459 nM |
| no binding |  |  | Human CD200R1L (receptor, UniProt Q6Q8B3 24-239, looked up, nothing is said of the reagent) GKQMTQNYSTIFAEGNISQPVLMDINAVLCCPPIALRNLIIITWEIILRGQPSCTKAYKKETNETKETNCTVERITWVSRPDQNSDLQIRPVDTTHDGYYRGIVVTPDGNFHRGYHLQVLVTPEVNLFQSRNITAVCKAVTGKPAAQISWIPEGSILATKQEYWGNGTVTVKSTCPWEGHKSTVTCHVSHLTGNKSLSVKLNSGLRTSGSPALSLL |  |
|  |  |  | B2 | Kd [5]: 12.5 nM |
| no binding |  |  | Mouse CD200R protein (Creative Biomart CD200R1-3280M) (receptor, UniProt Q9ES57 26-238, looked up, also called Murine CD200R1; murine CD200R) TDKNQTTQNNSSSPLTQVNTTVSVQIGTKALLCCFSIPLTKAVLITWIIKLRGLPSCTIAYKVDTKTNETSCLGRNITWASTPDHSPELQISAVTLQHEGTYTCETVTPEGNFEKNYDLQVLVPPEVTYFPEKNRSAVCEAMAGKPAAQISWSPDGDCVTTSESHSNGTVTVRSTCHWEQNNVSDVSCIVSHLTGNQSLSIELSRGGNQSLRP |  |
|  | 584 | 0.288 | Murine wild-type CD200 monomer, his-tag (DS-131), printed in Table 7 as DS-198 (ligand, mouse, UniProt O54901 31-232, looked up, extracellular domain; the match of DS-131 to DS-198 follows the order of the sentence; also called wild type muCD200-Fc (the corresponding IgG2a Fc fusion); not shown: his tag) QVEVVTQDERKALHTTASLRCSLKTSQEPLIVTWQKKKAVSPENMVTYSKTHGVVIQPAYKDRINVTELGLWNSSITFWNTTLEDEGCYMCLFNTFGSQKVSGTACLTLYVQPIVHLHYNYFEDHLNITCSATARPAPAISWKGTGTGIENSTESHFHSNGTTSVTSILRVKDPKTQVGKEVICQVLYLGNVIDYKQSLDKG |  |
|  | 43.3 | 1.96 | Murine CD200 H82Y, T125I monomer, his-tag (DS-169), printed in Table 7 as DS-227 (ligand, mouse, UniProt O54901 31-232, looked up, extracellular domain; See the note of m9; not shown: his tag) QVEVVTQDERKALHTTASLRCSLKTSQEPLIVTWQKKKAVSPENMVTYSKTYGVVIQPAYKDRINVTELGLWNSSITFWNTTLEDEGCYMCLFNIFGSQKVSGTACLTLYVQPIVHLHYNYFEDHLNITCSATARPAPAISWKGTGTGIENSTESHFHSNGTTSVTSILRVKDPKTQVGKEVICQVLYLGNVIDYKQSLDKG | fold higher affinity than wild type [8]: ~14 fold |
